In patent publication US20070020283A1 (Regeneron, published 2007):
Positions count from the first letter of the chain named. Names may count otherwise.

T1: hIFNγRβ.SG.hFc (human, UniProt P38484 28-246)
T1 construct: also called pCTR 2828; not shown: hinge, CH2 and CH3 regions of human IgG1 (hFc)
T1 sequence: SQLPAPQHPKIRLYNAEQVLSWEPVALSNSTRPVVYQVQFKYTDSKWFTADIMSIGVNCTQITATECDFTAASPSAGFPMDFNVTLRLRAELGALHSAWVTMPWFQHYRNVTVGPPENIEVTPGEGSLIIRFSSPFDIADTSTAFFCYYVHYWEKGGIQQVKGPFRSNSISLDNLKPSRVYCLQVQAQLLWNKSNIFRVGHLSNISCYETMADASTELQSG

B1: human interferon γ (ligand, UniProt P01579 24-166, looked up)
chain: QDPYVKEAENLKKYFNAGHSDVADNGTLFLGILKNWKEESDRKIMQSQIVSFYFKLFKNFKDDQSIQKSVETIKEDMNVKFFNSNKKKRDDFEKLTNYSVTDLNVQRKAIHELIQVMAELSPAAKTGKRKRSQMLFRGRRASQ
notes: Injected in solution over captured fusion proteins (BiaCore); Recombinant human IFNγ at 4 pM in the luciferase bioassays; also called IFNγ; human IFNγ
B2: hIFNγRβ(C174S).SG.hFc (Fc fusion)
chain: T1 sequence with C147S
notes: also called pCTR 2848; not shown: hinge, CH2 and CH3 regions of human IgG1 (hFc)
B3: hIFNγRα(1-239).SG.hFc (Fc fusion, not shown: a dimerising Fc or GST)
chain: EMGTADLGPSSVPTPTNVTIESYNMNPIVYWEYQIMPQVPVFTVEVKNYGVKNSEWIDACINISHHYCNISDHVGDPSNSLWVRVKARVGQKESAYAKSEEFAVCRDGKIGPPKLDIRKEEKQIMIDIFHPSVFVNGDEQEVDYDPETTCYIRVYNVYVRMNGSEIQYKILTQKEDDCDEIQCQLAIPVSSLNSQYCVSAEGVLHVWGVTTEKSKEVCITIFSG
B4: hIFNγRα(1-239).TG.hFc.ARA.hIFNγRβ (Fc fusion, not shown: a dimerising Fc or GST)
chain (part 1 of 2): B3 chain with S223T
chain (part 2 of 2): ARASQLPAPQHPKIRLYNAEQVLSWEPVALSNSTRPVVYQVQFKYTDSKWFTADIMSIGVNCTQITATECDFTAASPSAGFPMDFNVTLRLRAELGALHSAWVTMPWFQHYRNVTVGPPENIEVTPGEGSLIIRFSSPFDIADTSTAFFCYYVHYWEKGGIQQVKGPFRSNSISLDNLKPSRVYCLQVQAQLLWNKSNIFRVGHLSNISCYETMADASTELQ
B5: hIFNγRβ.TG.hIFNγRα(1-239).SG.hFc (Fc fusion)
chain: SQLPAPQHPKIRLYNAEQVLSWEPVALSNSTRPVVYQVQFKYTDSKWFTADIMSIGVNCTQITATECDFTAASPSAGFPMDFNVTLRLRAELGALHSAWVTMPWFQHYRNVTVGPPENIEVTPGEGSLIIRFSSPFDIADTSTAFFCYYVHYWEKGGIQQVKGPFRSNSISLDNLKPSRVYCLQVQAQLLWNKSNIFRVGHLSNISCYETMADASTELQTGMALLFLLPLVMQGVSRAEMGTADLGPSSVPTPTNVTIESYNMNPIVYWEYQIMPQVPVFTVEVKNYGVKNSEWIDACINISHHYCNISDHVGDPSNSLWVRVKARVGQKESAYAKSEEFAVCRDGKIGPPKLDIRKEEKQIMIDIFHPSVFVNGDEQEVDYDPETTCYIRVYNVYVRMNGSEIQYKILTQKEDDCDEIQCQLAIPVSSLNSQYCVSAEGVLHVWGVTTEKSKEVCITIFSG
notes: PCTR number 2843 is printed for two different constructs (r17 and r19); also called pCTR 2843; R2-R1-Fc; not shown: hinge, CH2 and CH3 regions of human IgG1 (hFc)

Key:
hIFNγRβ.SG.hFc = molecular target: T1, hIFNγRβ.SG.hFc; test: BiaCore, fusion captured by anti-human Fc, human IFNγ injected
Method: (§1) The affinity of the interferon γ-binding fusion polypeptides for human interferon γ was measured using a BlAcore 2000™ or BlAcore 3000™, as described in WO 00/75319, herein specifically incorporated by reference in its entirety. Briefly, the IFNγ-specific polypeptides were produce as small-scale supernatants by transiently transfecting CHO cells, using Lipofectamine/LIPO Plus® (Life Technologies), with DNA constructs encoding the proteins. Supernatants were collected after 72 hours and protein expression was measured by Western blotting with anti-human Fc HRP-conjugated antibody (Promega) and visualized by ECL (Pierce). Briefly, 5.4×10⁵ CHOK1 cells per well of a 6 well tissue culture dish were transfected using 1 μg of DNA and 5 μl of lipofectamine in OptiMEM™ (Gibco). After 12 h the cells were washed with OptiMEM™ and 2 ml of CHO serum free medium (Gibco) was added. After 60 h and 72 h the media was collected and centrifuged to remove cellular debris. For the BiaCore™ analysis, the IFNγ-binding fusion polypeptides from the transiently transfected CHO supernatants were captured onto the chip surface using anti-human Fc antibodies. Various concentrations of human IFNγ are injected over the surface and the time course of association and dissociation are monitored. Kinetic analyses using BIA evaluation software were performed to obtain the association and dissociation rate constants.

[1] = molecular target: B4; test: BiaCore (SPR), fusion captured by anti-human Fc, human IFNγ injected; R1-Fc-R2 configuration
Method: as §1

hIFNγRα(1-239).SG.hFc = molecular target: B3; test: BiaCore (SPR), fusion from CHO supernatant captured by anti-human Fc, human IFNγ injected
Method: as §1

human interferon γ [2] = molecular target: B1; test: BiaCore, fusion captured by anti-human Fc, human IFNγ injected
Method: as §1

human interferon γ [3] = molecular target: B1; test: cell-based or functional assay
human interferon γ [4] = molecular target: B1; test: BiaCore (SPR), fusion captured by anti-human Fc, human IFNγ injected; R2-R1-Fc configuration
Method: as §1

Row | Binder | IC50 (M), GAS-luciferase bioassay in HEK293 cells (human interferon γ [3]) [M] | IC50 (M), ISRE-luciferase bioassay in HEK293 cells (human interferon γ [3]) [M] | further results
1 | B1 | – | – | binding result (hIFNγRβ.SG.hFc): no binding; Kd [1]: > 10 nM; Kd (hIFNγRα(1-239).SG.hFc): 6 nM
2 | B2 | – | – | binding result (human interferon γ [2]): no binding
3 | B3 | 7.9e-09 | 6.2e-09 | –
4 | B4 | 1.6e-08 | 8e-07 | –
5 | B5 | 9.8e-09 | 1.46e-08 | Kd (human interferon γ [4]): > 10 nM
